B1: 22165 (protein)
chain: MALPVTALLLPLALLLHAARPACEVQLLESGGGLIQPGGSLRLSCAASGFTFSSHAMTWVRQAPGKGLEWVSAISGSGDYTHYADSVKGRFTISRDNSKNTVYLQMNSLRAEDSAVYYCAKDEDGGSLLGHRGQGTLVTVSSGTGGGGSGGGGSGGGGSEFDIQMTQSPSSLSASVGDRVTITCKASDHINNWLAWYQQKPGQAPKLLIYGATTLETGVPSRFSGSGSGTDYTLTISSLQPEDFATYYCQQSWNTPWTFGQGTKLEIKRLEDLKNVFPPEVAVFEPSEAEISHTQKATLVCLATGFYPDHVELSWWVNGKEVHSGVCTDPQPLKEQPALNDSRYCLSSRLRVSATFWQNPRNHFRCQVQFYGLSENDEWTQDRAKPVTQIVSAEAWGRADCGFTSESYQQGVLSATILYEILLGKATLYAVLVSALVLMAMVKRKDSRGRAKRSGSGATNFSLLKQAGDVEENPGPTSATMDWIWRILFLVGAATGAHSGPEVQLVESGGGLVQAGGSLRLSCAASGRTFSMGWFRQAPGKEREFVAAITYSGGSPYYADSVKGRFTISRDNAKNTVYLQMNSLKPEDTAVYYCAANPTYGSDWNAENWGQGTQVTVSSGSGGGGSGGGGSGGGGSFEQVQLQQPGAELVKPGASVKMSCKASGYAFSSYWINWMKQKPGQGLEWIGQIYPGDGDTNYNGKFKGRATLTADTSSSTAYMQLSSLTSEDSAVYFCARSITTVVGCAMDYWGQGTSVTVSSTRIQNPDPAVYQLRDSKSSDKSVCLFTDFDSQTNVSQSKDSDVYITDKCVLDMRSMDFKSNSAVAWSNKSDFACANAFNNSIIPEDTFFPSPESSCDVKLVEKSFETDTNLNFQNLSVIGFRILLLKVAGFNLLMTLRLWSSRAKRSGSGVKQTLNFDLLKLAGDVESNPGPSRGHMTEYKPTVRLATRDDVPRAVRTLAAAFADYPATRHTVDPDRHIERVTELQELFLTRVGLDIGKVWVADDGAAVAVWTTPESVEAGAVFAEIGPRMAELSGSRLAAQQQMEGLLAPHRPKEPAWFLATVGVSPDHQGKGLGSAVVLPGVEAAERAGVPAFLETSAPRNLPFYERLGFTVTADVEVPEGPRTWCMTRKPGA
B2: 22147 (protein)
chain: MALPVTALLLPLALLLHAARPACEVQLLESGGGLIQPGGSLRLSCAASGFTFSSHAMTWVRQAPGKGLEWVSAISGSGDYTHYADSVKGRFTISRDNSKNTVYLQMNSLRAEDSAVYYCAKDEDGGSLLGHRGQGTLVTVSSGTGGGGSGGGGSGGGGSEFDIQMTQSPSSLSASVGDRVTITCRASQDISNYLNWYQQKPGKAVKLLIYYTSILHSGVPSRFSGSGSGTDYTLTISSLQPEDFATYFCQQGNTLPWTFGGGTKVEIKLEADVSPKPTIFLPSIAETKLQKAGTYLCLLEKFFPDVIKIHWQEKKSNTILGSQEGNTMKTNDTYMKFSWLTVPEKSLDKEHRCIVRHENNKNGVDQEIIFPPIKTDVITMDPKDNCSKDANDTLLLQLTNTSAYYMYLLLLLKSVVYFAIITCCLLRRTAFCCNGEKSRAKRSGSGATNFSLLKQAGDVEENPGPTSMDWIWRILFLVGAATGAHSGPQVQLQESGGGLAQAGGSLRLSCAASGRTFSMGWFRQAPGKEREFVAAITYSGGSPYYASSVRGRFTISRDNAKNTVYLQMNSLKPEDTAVYYCAANPTYGSDWNAENWGQGTQVTVSSGSGGGGSGGGGSGGGGSFEVQLVESGGGLVKPGGSLKLSCAASGFAFSIYDMSWVRQAPGKGLEWVAYISSGGGTTYYPDTVKGRFTISRDNAKNTLYLQMSSLRAEDTAMYYCARHSGYGSSYGVLFAYWGQGTLVTVSSTRPHTKPSVFVMKNGTNVACLVKEFYPKDIRINLVSSKKITEFDPAIVISPSGKYNAVKLGKYEDSNSVTCSVQHDNKTVHSTDFEVKTDSTDHVKPKETENTKQPSKSCHKPKAIVHTEKVNMMSLTVLGLRMLFAKTVAVNFLLTAKLFFLRAKRSGSGVKQTLNFDLLKLAGDVESNPGPSRGHMTEYKPTVRLATRDDVPRAVRTLAAAFADYPATRHTVDPDRHIERVTELQELFLTRVGLDIGKVWVADDGAAVAVWTTPESVEAGAVFAEIGPRMAELSGSRLAAQQQMEGLLAPHRPKEPAWFLATVGVSPDHQGKGLGSAVVLPGVEAAERAGVPAFLETSAPRNLPFYERLGFTVTADVEVPEGPRTWCMTRKPGA
B3: 21985 (protein)
chain: MALPVTALLLPLALLLHAARPQLQLQESGPGLVKPSETLSLTCTVSGDSISSGDYYWGWIRQPPGKGLEWIGHIYYSGVTYYNPSLKSRVTISVDTSRNQFSLKLSSVTAADTAVYYCTREDSSNWRSRGQGTLVTVSSLEDLKNVFPPEVAVFEPSEAEISHTQKATLVCLATGFYPDHVELSWWVNGKEVHSGVCTDPQPLKEQPALNDSRYCLSSRLRVSATFWQNPRNHFRCQVQFYGLSENDEWTQDRAKPVTQIVSAEAWGRADCGFTSESYQQGVLSATILYEILLGKATLYAVLVSALVLMAMVKRKDSRGRAKRSGSGATNFSLLKQAGDVEENPGPTSMDWIWRILFLVGAATGAHSFEVQLLESGGGLIQPGGSLRLSCAASGFTFSSHAMTWVRQAPGKGLEWVSAISGSGDYTHYADSVKGRFTISRDNSKNTVYLQMNSLRAEDSAVYYCAKDEDGGSLLGHRGQGTLVTVSSTRIQNPDPAVYQLRDSKSSDKSVCLFTDFDSQTNVSQSKDSDVYITDKCVLDMRSMDFKSNSAVAWSNKSDFACANAFNNSIIPEDTFFPSPESSCDVKLVEKSFETDTNLNFQNLSVIGFRILLLKVAGFNLLMTLRLWSSRAKRSGSGVKQTLNFDLLKLAGDVESNPGPSRGHMTEYKPTVRLATRDDVPRAVRTLAAAFADYPATRHTVDPDRHIERVTELQELFLTRVGLDIGKVWVADDGAAVAVWTTPESVEAGAVFAEIGPRMAELSGSRLAAQQQMEGLLAPHRPKEPAWFLATVGVSPDHQGKGLGSAVVLPGVEAAERAGVPAFLETSAPRNLPFYERLGFTVTADVEVPEGPRTWCMTRKPGA
B4: 22162 (protein)
chain: MALPVTALLLPLALLLHAARPDIQMTQSPSSLSASVGDRVTITCKASDHINNWLAWYQQKPGQAPKLLIYGATTLETGVPSRFSGSGSGTDYTLTISSLQPEDFATYYCQQSWNTPWTFGQGTKLEIKRLEDLKNVFPPEVAVFEPSEAEISHTQKATLVCLATGFYPDHVELSWWVNGKEVHSGVCTDPQPLKEQPALNDSRYCLSSRLRVSATFWQNPRNHFRCQVQFYGLSENDEWTQDRAKPVTQIVSAEAWGRADCGFTSESYQQGVLSATILYEILLGKATLYAVLVSALVLMAMVKRKDSRGRAKRSGSGATNFSLLKQAGDVEENPGPTSATMDWIWRILFLVGAATGAHSGPEVQLLESGGGLVQPGGSLRLSCAASGSIASIHAMGWFRQAPGKEREFVAVITWSGGITYYADSVKGRFTISRDNSKNTVYLQMNSLRPEDTALYYCAGDKHQSSWYDYWGQGTLVTVSSGSGGGGSGGGGSGGGGSFEQVQLQQPGAELVKPGASVKMSCKASGYAFSSYWINWMKQKPGQGLEWIGQIYPGDGDTNYNGKFKGRATLTADTSSSTAYMQLSSLTSEDSAVYFCARSITTVVGCAMDYWGQGTSVTVSSTRIQNPDPAVYQLRDSKSSDKSVCLFTDFDSQTNVSQSKDSDVYITDKCVLDMRSMDFKSNSAVAWSNKSDFACANAFNNSIIPEDTFFPSPESSCDVKLVEKSFETDTNLNFQNLSVIGFRILLLKVAGFNLLMTLRLWSSRAKRSGSGVKQTLNFDLLKLAGDVESNPGPSRGHMTEYKPTVRLATRDDVPRAVRTLAAAFADYPATRHTVDPDRHIERVTELQELFLTRVGLDIGKVWVADDGAAVAVWTTPESVEAGAVFAEIGPRMAELSGSRLAAQQQMEGLLAPHRPKEPAWFLATVGVSPDHQGKGLGSAVVLPGVEAAERAGVPAFLETSAPRNLPFYERLGFTVTADVEVPEGPRTWCMTRKPGA

Legend:
Format in all cases: cell-based
RAJI cells = assay: JNG assay, co-culture with RAJI cells; details: JNG cells expressing construct, co-culture with Raji
In short: (§1)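 Read-out is NFAT-driven GFP measured by flow cytometry after ~4–18 h co-culture of SAR-expressing JNG cells with target cells (E:T about 1:2). SARs were introduced by lentiviral spinfection and selected with puromycin or blasticidin when possible; scores (+/- to 5+ ≈ 5–50% GFP+) are relative to parental JNG cells.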

L363 cells = assay: JNG assay, co-culture with L363 cells; details: co-culture with L363
In short: as §1

Nalm6 cells = assay: JNG assay, co-culture with Nalm6 cells; details: co-culture with Nalm6
Method: Cellular supernatant is collected and assayed for the induction of cytokines (e.g., IL2).
JNG (Jurkat cells expressing EGFP under an NFAT promoter) were infected with lentiviral vectors encoding different single chain and multi-chain SARs by spinfection in the presence of 8 µg/ml of Polybrene® (Sigma, Catalog no. H9268). The Jurkat-NFAT-GFP cells are engineered in such a way that the IL-2 promoter, which carries NFAT binding sites, is cloned upstream of the GFP gene. These cells have been used to study signaling via TCR and CAR. The different SARs were stably expressed in Jurkat NFAT-GFP cells by lentiviral mediated gene transfer, followed by selection with puromycin or blasticidin. No drug selection was used in case the construct lacked an antibiotic resistance gene. The SAR-expressing Jurkat-NFAT-GFP cells were cocultured with the target cells at E:T ratio of approximately 1:2 for approximately 4 hours to 18 hours. When the interaction between SIRs and their target antigen results in activation of the NFAT pathway, GFP expression is induced. […] GFP expression was monitored by FACS analysis. The Jurkat-NFAT-GFP (parental) cells were used as control. The structure of different constructs can be determined based on their names. For example, the construct CD8SP-CD19-hu-mROO5-1-vL-[hTCRa-C SDVP]-F-F2A-Spe-IgHSP-Apa-CD20-vHH-2HCD25-G4S-CDl9-hu-mROO5-1-vH-Mlu-[hTCRb-KACIAH]-F-P2A-PAC has the following modules from 5′ to 3′ direction: a CD8 signal peptide (CD8SP), the CD19 targeting hu-mROO5-1 vL fragment (CD19-hu-mROO5-1), Xho1 cloning site, human TCRa constant chain containing CSDVP mutations (hTCRa-CSDVP), Furine cleavage site (F), F2A ribosomal skip sequence (F2A), SpeI site, human IgH signal peptide (IgHSP), Apa I restriction enzyme site, camelid CD20-2HCD25-VHH module targeting CD20, BamHI restriction enzyme site, Glycinex4-serine linker (G4S), BstI restriction enzyme site, CD19-hu-mROO5-1-vH fragment targeting CD19, Mlu I restriction enzyme site, human TCRb constant chain containing KACIAH mutations ([hTCRb-KACIAH]), Furine cleavage site (F), P2A ribosomal skip sequence and Puromycin resistance gene (PAC). The sequence of the other constructs in the table can be similarly determined from their names and by referring to the different Tables of this disclosure that provide the names and SEQ ID NO of the different modules. Alternatively, the composition and modular architecture of the different SAR constructs can be determined from their sequences by bioinformatics tools, including using nucleic acid and amino acids homology searches. A SAR is considered positive in the assay in case the SAR expressing Jurkat-NFAT-GFP cells show greater % GFP positive cells when cultured with the target cell line as compared to parental Jurkat-NFAT-GFP cells. The signs +/-, +, 2+ etc. after the name of the cell lines indicate the relative degree of positivity on the Jurkat-NFAT-GFP assay as measured by the % GFP positive cells after culture of the SAR expressing Jurkat-NFAT-GFP cells with that cell line above the % GFP cells observed in parental Jurkat NFAT-GFP cells serving as controls. In general, the number +/-, +, 2+, 3+, 4+, 5+ refer to approximately 5%, 10%, 20%, 30%, 40% and 50% GFP positive cells. The % of GFP induction in the above assay is dependent not only the relative strength of the SAR but also, among other factors, on the relative level of expression of the SAR in the JNG cells and the relative level of expression of the target antigen in the target cell line. To control for the difference in gene transduction efficiency of the different SAR constructs, the experiment was conducted with JNG cells transduced with SAR constructs co-expressing a drug resistance gene (e.g., puromycin or PAC) followed by drug selection to generate a stable population of SAR-expressing cells. […]

| Molecule | NFAT-GFP ASSAY: Raji (RAJI cells) | NFAT-GFP ASSAY: L363 (L363 cells) | NFAT-GFP ASSAY: Nalm6 (Nalm6 cells) |
| --- | --- | --- | --- |
| B1 | Raji (+), L363 (+) (refer to approximately 5%, 10%, 20%, 30%, 40% and 50% GFP positive cells) | Raji (+), L363 (+) (refer to approximately 5%, 10%, 20%, 30%, 40% and 50% GFP positive cells) | – |
| B2 | + (refer to approximately 5%, 10%, 20%, 30%, 40% and 50% GFP positive cells) | + (refer to approximately 5%, 10%, 20%, 30%, 40% and 50% GFP positive cells) | – |
| B3 | – | – | +/- (refer to approximately 5%, 10%, 20%, 30%, 40% and 50% GFP positive cells) |
| B4 | – | – | 5+ (refer to approximately 5%, 10%, 20%, 30%, 40% and 50% GFP positive cells) |
